Source: patent US20110311550A1 (Scripps Research, published 2011)

B1: MAb AR1A (antibody, V domains shown)
VH: LEQSGAEVKKPGSSVKVSCRASGSPYSSYTITWVRQAPGQGLEWMGGIILMTGKANYAQKFQGRVTITADRATATAYMEMSSLTSDDTAIYYCARDPYVYAGDDVRSLSRWGQGTPVIVSS
VL: not shown
notes: also called IgG1 of Fab B2
B2: MAb AR3C (antibody, V domains shown)
VH: LEQSGAEVKKPGSSVKVSCETSGGTLDNYALNWVRQAPGQGLEWIGGVVPLFGTTRNAQKFQGRVTISDDKSTGTGHMELRSLRSEDTAVYYCVRSVTPRYCGGGFCYGEFDYWGQGTLVTVSS
VL: ELTQSPATLSVSPGERATLSCRASQSVSSNLAWYQQKPGQAPRLLIYGASTRATGIPARFSGSGSGTEFTLTVSRLEPEDSAVYFCQQYYRSPLTFGGGTKVEIKR
notes: also called IgG1 of Fab H3
B3: MAb AR2A (antibody, V domains shown)
VH: LEQSGAEMKKPGASLKVSCKTSGYTFDDYGVTWVRQAPGQGLEWMGWISAYSGNTFYARKFQGRVTMTTDPSTRTAYMELRSLRSDDTAVYFCARDRGLAINGVVFPYFGLDVWGQGTTVTVSS
VL: ELTQSPVSLPVTPGEPASISCRSSQSLLHSNGNHYLDWYLQKPGQSPQLLMYLGSNRASGVPDRFSGSGSGTDFTLKISRVEAEDVGVYYCMQGLQTPWTFGQGTKVEIKR
notes: also called IgG1 of Fab G
B4: MAb AR3D (antibody, V domains shown)
VH: LEQSGAEVKKPGSSVKVSCKASGDTFRSYVITWARQAPGQGLEWMGAIIPFFGTTNLAQKFQGRVTITADESTKTVYMDLSSLRSDDTAVYYCAKAGDLSVGGVLAGGVPHLRHFDPWGQGTLVTVSS
VL: ELTQSPGTLSLSPGERATLSCRAGQTVASNSLAWYQHKPGQAPRLLIYGASIRASGIPDRFSGSGSGTDFTLTISRLEPEDFAVYYCQQYGLSSTFGQGTRLEIKR
notes: also called IgG1 of Fab L4
B5: MAb AR1B (antibody, V domains shown)
VH: LESGGGLVQPGGSLRLSCEASGYYFSSFAMSWVRQTPGKGLEWVSSIAGGTLGRTSYRDSVKGRFTISRDNSKNTVFLHMNNLRPEDTAVYYCAKDPLLFAGGPNWFDHWGQGTLVTVSS
VL: not shown
notes: also called IgG1 of Fab D1

Experiments:
[1] = target: H77 E1E2 mutant I414A (HCV isolate H77, UniProt P27958 192-383; P27958 384-746); assay: ELISA, alanine mutant E1E2
[2] = target: H77 E1E2 mutant H421A (HCV isolate H77, UniProt P27958 192-383; P27958 384-746); assay: ELISA, alanine mutant E1E2
[3] = target: H77 E1E2 mutant W529A (HCV isolate H77, UniProt P27958 192-383; P27958 384-746); assay: ELISA, alanine mutant E1E2
[4] = target: H77 E1E2 mutant Y489A (HCV isolate H77, UniProt P27958 192-383; P27958 384-746); assay: ELISA, alanine mutant E1E2
[5] = target: H77 E1E2 mutant P484A (HCV isolate H77, UniProt P27958 192-383; P27958 384-746); assay: ELISA, alanine mutant E1E2
[6] = target: H77 E1E2 mutant N423A (HCV isolate H77, UniProt P27958 192-383; P27958 384-746); assay: ELISA, alanine mutant E1E2
[7] = target: H77 E1E2 mutant S424A (HCV isolate H77, UniProt P27958 192-383; P27958 384-746); assay: ELISA, alanine mutant E1E2
[8] = target: H77 E1E2 mutant Q412A (HCV isolate H77, UniProt P27958 192-383; P27958 384-746); assay: ELISA, alanine mutant E1E2
[9] = target: H77 E1E2 mutant P525A (HCV isolate H77, UniProt P27958 192-383; P27958 384-746); assay: ELISA, alanine mutant E1E2
[10] = target: H77 E1E2 mutant W420A (HCV isolate H77, UniProt P27958 192-383; P27958 384-746); assay: ELISA, alanine mutant E1E2
[11] = target: H77 E1E2 mutant G530A (HCV isolate H77, UniProt P27958 192-383; P27958 384-746); assay: ELISA, alanine mutant E1E2
[12] = target: H77 E1E2 mutant P545A (HCV isolate H77, UniProt P27958 192-383; P27958 384-746); assay: ELISA, alanine mutant E1E2
[13] = target: H77 E1E2 mutant L413A (HCV isolate H77, UniProt P27958 192-383; P27958 384-746); assay: ELISA, alanine mutant E1E2
[14] = target: H77 E1E2 mutant H488A (HCV isolate H77, UniProt P27958 192-383; P27958 384-746); assay: ELISA, alanine mutant E1E2
[15] = target: H77 E1E2 mutant G418A (HCV isolate H77, UniProt P27958 192-383; P27958 384-746); assay: ELISA, alanine mutant E1E2
[16] = target: H77 E1E2 mutant Y485A (HCV isolate H77, UniProt P27958 192-383; P27958 384-746); assay: ELISA, alanine mutant E1E2
[17] = target: H77 E1E2 mutant S419A (HCV isolate H77, UniProt P27958 192-383; P27958 384-746); assay: ELISA, alanine mutant E1E2
[18] = target: H77 E1E2 mutant I422A (HCV isolate H77, UniProt P27958 192-383; P27958 384-746); assay: ELISA, alanine mutant E1E2
[19] = target: H77 E1E2 mutant G547A (HCV isolate H77, UniProt P27958 192-383; P27958 384-746); assay: ELISA, alanine mutant E1E2
[20] = target: H77 E1E2 mutant R483A (HCV isolate H77, UniProt P27958 192-383; P27958 384-746); assay: ELISA, alanine mutant E1E2
[21] = target: H77 E1E2 mutant T416A (HCV isolate H77, UniProt P27958 192-383; P27958 384-746); assay: ELISA, alanine mutant E1E2
[22] = target: H77 E1E2 mutant N415A (HCV isolate H77, UniProt P27958 192-383; P27958 384-746); assay: ELISA, alanine mutant E1E2
[23] = target: H77 E1E2 mutant T534A (HCV isolate H77, UniProt P27958 192-383; P27958 384-746); assay: ELISA, alanine mutant E1E2
[24] = target: H77 E1E2 mutant R543A (HCV isolate H77, UniProt P27958 192-383; P27958 384-746); assay: ELISA, alanine mutant E1E2
[25] = target: H77 E1E2 mutant N540A (HCV isolate H77, UniProt P27958 192-383; P27958 384-746); assay: ELISA, alanine mutant E1E2
[26] = target: H77 E1E2 mutant D533A (HCV isolate H77, UniProt P27958 192-383; P27958 384-746); assay: ELISA, alanine mutant E1E2
[27] = target: H77 E1E2 mutant N532A (HCV isolate H77, UniProt P27958 192-383; P27958 384-746); assay: ELISA, alanine mutant E1E2
[28] = target: vaccinia-expressed E1E2 complex, isolate HCV-1 (genotype 1a) (hepatitis C virus, isolate HCV-1, UniProt P26664 192-383; P26664 384-746); assay: competition ELISA on HCV-1 E1E2; competitor m2 (AR1B)

| Binder | binding vs wild-type E1E2 [1] | binding vs wild-type E1E2 [2] | binding vs wild-type E1E2 [3] | binding vs wild-type E1E2 [4] | binding vs wild-type E1E2 [5] | binding vs wild-type E1E2 [6] | binding vs wild-type E1E2 [7] | binding vs wild-type E1E2 [8] | binding vs wild-type E1E2 [9] | binding vs wild-type E1E2 [10] | binding vs wild-type E1E2 [11] | binding vs wild-type E1E2 [12] | binding vs wild-type E1E2 [13] | binding vs wild-type E1E2 [14] | binding vs wild-type E1E2 [15] | binding vs wild-type E1E2 [16] | binding vs wild-type E1E2 [17] | binding vs wild-type E1E2 [18] | binding vs wild-type E1E2 [19] | % residual binding [28] | also measured |
| --- | --- | --- | --- | --- | --- | --- | --- | --- | --- | --- | --- | --- | --- | --- | --- | --- | --- | --- | --- | --- | --- |
| B1 | 128% | 167% | 367% | 189% | 38% | 79% | 103% | 145% | 101% | 141% | 227% | 74% | 103% | 91% | 51% | 17% | 84% | 106% | 34% | 15% | binding vs wild-type E1E2 [20]: 64%; binding vs wild-type E1E2 [21]: 23%; binding vs wild-type E1E2 [22]: 106%; binding vs wild-type E1E2 [23]: 100%; binding vs wild-type E1E2 [24]: 239%; binding vs wild-type E1E2 [25]: 0%; binding vs wild-type E1E2 [26]: 101%; binding vs wild-type E1E2 [27]: 82% |
| B2 | – | – | – | – | – | – | – | – | – | – | – | – | – | – | – | – | – | – | – | 91% | – |
| B3 | 180% | 84% | 132% | 138% | 77% | 69% | 91% | 95% | 109% | 80% | 53% | 106% | 92% | 72% | 83% | 67% | 93% | 95% | 83% | 57% | binding vs wild-type E1E2 [20]: 68%; binding vs wild-type E1E2 [21]: 99%; binding vs wild-type E1E2 [22]: 122%; binding vs wild-type E1E2 [23]: 84%; binding vs wild-type E1E2 [24]: 125%; binding vs wild-type E1E2 [25]: 30%; binding vs wild-type E1E2 [26]: 60%; binding vs wild-type E1E2 [27]: 58% |
| B4 | 126% | 87% | 88% | 113% | 90% | 65% | 6% | 44% | 53% | 68% | 24% | 307% | 83% | 123% | 60% | 145% | 73% | 113% | 202% | 92% | binding vs wild-type E1E2 [20]: 151%; binding vs wild-type E1E2 [21]: 90%; binding vs wild-type E1E2 [22]: 131%; binding vs wild-type E1E2 [23]: 181%; binding vs wild-type E1E2 [24]: 276%; binding vs wild-type E1E2 [25]: 56%; binding vs wild-type E1E2 [26]: 146%; binding vs wild-type E1E2 [27]: 159% |
| B5 | 147% | 72% | 94% | 52% | 45% | 38% | 103% | 48% | 33% | 41% | 50% | 20% | 109% | 63% | 143% | 30% | 118% | 58% | 0% | 6% | binding vs wild-type E1E2 [20]: 32%; binding vs wild-type E1E2 [21]: 99%; binding vs wild-type E1E2 [22]: 131%; binding vs wild-type E1E2 [23]: 49%; binding vs wild-type E1E2 [24]: 135%; binding vs wild-type E1E2 [25]: 25%; binding vs wild-type E1E2 [26]: 90%; binding vs wild-type E1E2 [27]: 73% |
